{
  "source": "patent US20090325290A1",
  "key": {"[1]": {"target": "HLA-DR antigen on the surface of HLA-DR positive cells (tumor cell lines other than PRIESS and LG-2, normal B cells, or cell line not stated) (human)", "experiment": "cell-based or functional assay"}, "[2]": {"target": "HLA-DR on the human B-lymphoblastoid cell line LG-2 (human)", "experiment": "cell-based or functional assay"}, "[3]": {"target": "HLA-DR (allotype and form not stated)", "experiment": "not stated (Z. A. Nagy, unpublished)"}},
  "data": [
    {"substance": "murine anti-HLA-DR antibody L243", "values": [
      {"measurement": "% killing of ARH-77 cells (DR 12), 200 nM, 4 h", "setting": "[1]", "result": 88, "unit": "%"},
      {"measurement": "% killing of BJAB cells (DR 12, 13), 200 nM, 4 h", "setting": "[1]", "result": 53, "unit": "%"},
      {"measurement": "% killing of BONNA-12 cells, 200 nM, 4 h", "setting": "[1]", "result": 92, "unit": "%"},
      {"measurement": "% killing of DOHH-2 cells (DR 1, 2), 200 nM, 4 h", "setting": "[1]", "result": 29, "unit": "%"},
      {"measurement": "% killing of EOL-1 cells, 200 nM, 4 h", "setting": "[1]", "result": 22, "unit": "%"},
      {"measurement": "% killing of GRANTA-519 cells (DR 2, 11), 200 nM, 4 h", "setting": "[1]", "result": 83, "unit": "%"},
      {"measurement": "% killing of HC-1 cells, 200 nM, 4 h", "setting": "[1]", "result": 88, "unit": "%"},
      {"measurement": "% killing of HD-MY-Z cells, 200 nM, 4 h", "setting": "[1]", "result": 35, "unit": "%"},
      {"measurement": "% killing of HDLM-2 cells, 200 nM, 4 h", "setting": "[1]", "result": 77, "unit": "%"},
      {"measurement": "% killing of KARPAS-299 cells (DR 1, 2), 200 nM, 4 h", "setting": "[1]", "result": 78, "unit": "%"},
      {"measurement": "% killing of KARPAS-422 cells (DR 2, 4), 200 nM, 4 h", "setting": "[1]", "result": 25, "unit": "%"},
      {"measurement": "% killing of KM-H2 cells, 200 nM, 4 h", "setting": "[1]", "result": 81, "unit": "%"},
      {"measurement": "% killing of L1236 cells, 200 nM, 4 h", "setting": "[1]", "result": 52, "unit": "%"},
      {"measurement": "% killing of L-363 cells, 200 nM, 4 h", "setting": "[1]", "result": 6, "unit": "%"},
      {"measurement": "% killing of L-428 cells (DR 12), 200 nM, 4 h", "setting": "[1]", "result": 82, "unit": "%"},
      {"measurement": "% killing of LP-1 cells, 200 nM, 4 h", "setting": "[1]", "result": 12, "unit": "%"},
      {"measurement": "% killing of MHH-CALL-4 cells (DR 1, 2), 200 nM, 4 h", "setting": "[1]", "result": 35, "unit": "%"},
      {"measurement": "% killing of MHH-PREB-1 cells, 200 nM, 4 h", "setting": "[1]", "result": 3, "unit": "%"},
      {"measurement": "% killing of MN-60 cells (DR 10, 13), 200 nM, 4 h", "setting": "[1]", "result": 46, "unit": "%"},
      {"measurement": "% killing of NALM-1 cells (DR 1, 4), 200 nM, 4 h", "setting": "[1]", "result": 44, "unit": "%"},
      {"measurement": "% killing of RAJI cells (DR 10, 17), 200 nM, 4 h", "setting": "[1]", "result": 69, "unit": "%"},
      {"measurement": "% killing of RPMI-8226 cells, 200 nM, 4 h", "setting": "[1]", "result": 6, "unit": "%"},
      {"measurement": "% killing of SR-786 cells (DR 1, 2), 200 nM, 4 h", "setting": "[1]", "result": 3, "unit": "%"},
      {"measurement": "% killing of LG-2 cells, 200 nM, 4 h", "setting": "[2]", "result": 79, "unit": "%"},
      {"measurement": "Kd", "setting": "[3]", "result": 10, "unit": "nM"}
    ]}
  ]
}
